US11390660B2, “Uterine cancer treatments” (Immatics Biotechnologies GmbH, priority 2016, dated 2022)

System: CD8+ T cells
Experiment: In vitro T-cell priming assay with aAPCs loaded with peptide/MHC complexes and anti-CD28 antibody, pMHC multimer readout
Type: cell-based, human
Details: in vitro immunogenicity, HLA-A*02 restricted peptides, positive wells among evaluable (Table 10B)
From the text: In order to obtain information regarding the immunogenicity of the TUMAPs of the present invention, the inventors performed investigations using an in vitro T-cell priming assay based on repeated stimulations of CD8+ T cells with artificial antigen presenting cells (aAPCs) loaded with peptide/MHC complexes and anti-CD28 antibody.
In order to perform in vitro stimulations by artificial antigen presenting cells loaded with peptide-MHC complex (pMHC) and anti-CD28 antibody, the inventors first isolated CD8+ T cells from fresh HLA-A*02 leukapheresis products via positive selection using CD8 microbeads (Miltenyi Biotec, Bergisch-Gladbach, Germany) of healthy donors obtained from the University clinics Mannheim, Germany, after informed consent.
PBMCs and isolated CD8+ lymphocytes were incubated in T-cell medium (TCM) until use consisting of RPMI-Glutamax (Invitrogen, Karlsruhe, Germany) supplemented with 10% heat inactivated human AB serum (PAN-Biotech, Aidenbach, Germany), 100 U/ml Penicillin/100 μg/ml Streptomycin (Cambrex, Cologne, Germany), 1 mM sodium pyruvate (CC Pro, Oberdorla, Germany), 20 μg/ml Gentamycin (Cambrex). 2.5 ng/ml IL-7 (PromoCell, Heidelberg, Germany) and 10 U/ml IL-2 (Novartis Pharma, Nürnberg, Germany) were also added to the TCM at this step.
Generation of pMHC/anti-CD28 coated beads, T-cell stimulations and readout was performed in a highly defined in vitro system using four different pMHC molecules per stimulation condition and 8 different pMHC molecules per readout condition.
The purified co-stimulatory mouse IgG2a anti human CD28 Ab 9.3 (Jung et al., 1987) was chemically biotinylated using Sulfo-N-hydroxysuccinimidobiotin as recommended by the manufacturer (Perbio, Bonn, Germany). Beads used were 5.6 μm diameter streptavidin coated polystyrene particles (Bangs Laboratories, Illinois, USA).
800.000 beads/200 μI were coated in 96-well plates in the presence of 4×12.5 ng different biotin-pMHC, washed and 600 ng biotin anti-CD28 were added subsequently in a volume of 200 μI. Stimulations were initiated in 96-well plates by co-incubating 1×10^6 CD8+ T cells with 2×10^5 washed coated beads in 200 μI TCM supplemented with 5 ng/ml IL-12 (PromoCell) for 3 days at 37° C. Half of the medium was then exchanged by fresh TCM supplemented with 80 U/ml IL-2 and incubating was continued for 4 days at 37° C. This stimulation cycle was performed for a total of three times. For the pMHC multimer readout using 8 different pMHC molecules per condition, a two-dimensional combinatorial coding approach was used as previously described (Andersen et al., 2012) with minor modifications encompassing coupling to 5 different fluorochromes. Finally, multimeric analyses were performed by staining the cells with Live/dead near IR dye (Invitrogen, Karlsruhe, Germany), CD8-FITC antibody clone SK1 (BD, Heidelberg, Germany) and fluorescent pMHC multimers. For analysis, a BD LSRII SORP cytometer equipped with appropriate lasers and filters was used. Peptide specific cells were calculated as percentage of total CD8+ cells. Evaluation of multimeric analysis was done using the FlowJo software (Tree Star, Oregon, USA). In vitro priming of specific multimer+ CD8+ lymphocytes was detected by comparing to negative control stimulations.

| Substance | Wells positive [%] |
| --- | --- |
| 2 (VLLDIFTGV; listed as Homo sapiens) [compound 2] | +++ (50%-69% = +++) |
| 6 (SLLSELVEA; listed as Homo sapiens) [compound 6] | + (<20% = +) |
| 20 (ALLGFVTDL; listed as Homo sapiens) [compound 20] | ++ (20%-49% = ++) |
| 7 (SILSLLIKL; listed as Homo sapiens) [compound 7] | ++ (20%-49% = ++) |

Same assay, conditions: in vitro immunogenicity, percentage of positive wells, healthy HLA-A*02 donors (Table 10A)

| Substance | wells |
| --- | --- |
| 58 (GVLENIFGV; listed as Homo sapiens) [compound 58] | + (<20% = +) |
| 69 (VLTEFTREV; listed as Homo sapiens) [compound 69] | + (<20% = +) |
| 62 (SLWGGDVVL; listed as Homo sapiens) [compound 62] | ++ (20%-49% = ++) |
| 56 (LLLEILHEI; listed as Homo sapiens) [compound 56] | + (<20% = +) |
| 57 (ALADLTGTVV; listed as Homo sapiens) [compound 57] | + (<20% = +) |
| 59 (QLLAGVFLA; listed as Homo sapiens) [compound 59] | + (<20% = +) |
| 64 (ALYDSVILL; listed as Homo sapiens) [compound 64] | + (<20% = +) |

Biological target: HLA-A*02:01 (Homo sapiens, UniProt P04439, D140Y/D185E/D98H/E176V/E277Q/G131W/G231S/I119V/I121R/I166T/I218V/L300P/L318F/N151K/N90K/P208A/P217A/Q86G/Q94H/R138H/R169H/T345S)
Experiment: MHC binding assay: UV-ligand exchange with β2m ELISA
Details: peptide exchange yield, binding to HLA-A*02:01
From the text: Candidate peptides for T cell based therapies according to the present invention were further tested for their MHC binding capacity (affinity). The individual peptide-MHC complexes were produced by UV-ligand exchange, where a UV-sensitive peptide is cleaved upon UV-irradiation, and exchanged with the peptide of interest as analyzed. Only peptide candidates that can effectively bind and stabilize the peptide-receptive MHC molecules prevent dissociation of the MHC complexes. To determine the yield of the exchange reaction, an ELISA was performed based on the detection of the light chain (β2m) of stabilized MHC complexes. The assay was performed as generally described in Rodenko et al. (Rodenko et al., 2006).
96 well MAXISorp plates (NUNC) were coated over night with 2 ug/ml streptavidin in PBS at room temperature, washed 4× and blocked for 1 h at 37° C. in 2% BSA containing blocking buffer. Refolded HLA-A*02:01/MLA-001 monomers served as standards, covering the range of 15-500 ng/ml. Peptide-MHC monomers of the UV-exchange reaction were diluted 100 fold in blocking buffer. Samples were incubated for 1 h at 37° C., washed four times, incubated with 2 ug/ml HRP conjugated anti-β2m for 1 h at 37° C., washed again and detected with TMB solution that is stopped with […]. Absorption was measured at 450 nm. Candidate peptides that show a high exchange yield (preferably higher than 50%, most preferred higher than 75%) are generally preferred for a generation and production of antibodies or fragments thereof, and/or T cell receptors or fragments thereof, as they show sufficient avidity to the MHC molecules and prevent dissociation of the MHC complexes.

| Substance | Peptide exchange |
| --- | --- |
| 2 (VLLDIFTGV; listed as Homo sapiens) [compound 2] | ++++ (> 75% = ++++) |
| 52 (ALISEKLETL; listed as Homo sapiens) [compound 52] | +++ (>50 = +++) |
| 30 (TLLDRVAVI; listed as Homo sapiens) [compound 30] | +++ (>50 = +++) |
| 33 (SMTTNLDLKV; listed as Homo sapiens) [compound 33] | ++ (>20% = ++) |
| 22 (VLVSSVLGV; listed as Homo sapiens) [compound 22] | +++ (>50 = +++) |
| 28 (GLDEAIRKV; listed as Homo sapiens) [compound 28] | +++ (>50 = +++) |
| 32 (GLIENTYQL; listed as Homo sapiens) [compound 32] | +++ (>50 = +++) |
| 40 (GLLGGVIMMV; listed as Homo sapiens) [compound 40] | ++++ (> 75% = ++++) |
| 6 (SLLSELVEA; listed as Homo sapiens) [compound 6] | ++++ (> 75% = ++++) |
| 45 (VLLHVSVLL; listed as Homo sapiens) [compound 45] | ++ (>20% = ++) |
| 24 (ILDAQTAFV; listed as Homo sapiens) [compound 24] | +++ (>50 = +++) |
| 34 (AIAGRLLGV; listed as Homo sapiens) [compound 34] | ++++ (> 75% = ++++) |
| 37 (VLLATVTEL; listed as Homo sapiens) [compound 37] | +++ (>50 = +++) |
| 29 (IGIGPVLNI; listed as Homo sapiens) [compound 29] | + (>10% = +) |
| 21 (VLGPEGQLV; listed as Homo sapiens) [compound 21] | +++ (>50 = +++) |
| 31 (ALLTAVTNV; listed as Homo sapiens) [compound 31] | +++ (>50 = +++) |
| 20 (ALLGFVTDL; listed as Homo sapiens) [compound 20] | ++++ (> 75% = ++++) |
| 7 (SILSLLIKL; listed as Homo sapiens) [compound 7] | ++ (>20% = ++) |
| 16 (KLNSSIQYV; listed as Homo sapiens) [compound 16] | +++ (>50 = +++) |
| 11 (ALDPIIHGL; listed as Homo sapiens) [compound 11] | ++++ (> 75% = ++++) |
| 27 (VLNPETTVV; listed as Homo sapiens) [compound 27] | +++ (>50 = +++) |
| 49 (ALLELLHEL; listed as Homo sapiens) [compound 49] | ++++ (> 75% = ++++) |
| 53 (VMHDSSFSV; listed as Homo sapiens) [compound 53] | ++++ (> 75% = ++++) |
| 36 (SLLSDIIAL; listed as Homo sapiens) [compound 36] | +++ (>50 = +++) |

| Substance | Peptide exchange |
| --- | --- |
| 38 (RILDIDIPLSV; listed as Homo sapiens) [compound 38] | +++ (>50 = +++) |
| 41 (YIDDIFSGV; listed as Homo sapiens) [compound 41] | ++++ (> 75% = ++++) |
| 46 (NMDDVIYYV; listed as Homo sapiens) [compound 46] | +++ (>50 = +++) |
| 44 (FLNGLEILL; listed as Homo sapiens) [compound 44] | ++++ (> 75% = ++++) |
| 26 (SVLAGVVGV; listed as Homo sapiens) [compound 26] | ++++ (> 75% = ++++) |
| 51 (TVPPVFVSV; listed as Homo sapiens) [compound 51] | +++ (>50 = +++) |
| 25 (ILLELFTHV; listed as Homo sapiens) [compound 25] | ++++ (> 75% = ++++) |
| 42 (FLSGYYVTL; listed as Homo sapiens) [compound 42] | ++++ (> 75% = ++++) |
| 13 (ALQNKVVAL; listed as Homo sapiens) [compound 13] | +++ (>50 = +++) |
| 4 (RLDIQGTGQLL; listed as Homo sapiens) [compound 4] | +++ (>50 = +++) |
| 12 (ALAPSEGVQAA; listed as Homo sapiens) [compound 12] | ++++ (> 75% = ++++) |
| 35 (TLLPTLYEI; listed as Homo sapiens) [compound 35] | +++ (>50 = +++) |
| 47 (GLVEQLYDL; listed as Homo sapiens) [compound 47] | +++ (>50 = +++) |
| 43 (VIANEIEKV; listed as Homo sapiens) [compound 43] | +++ (>50 = +++) |
| 17 (KLWEESTAQV; listed as Homo sapiens) [compound 17] | +++ (>50 = +++) |
| 48 (ILAETQPEL; listed as Homo sapiens) [compound 48] | +++ (>50 = +++) |
| 5 (SLFDEVRQI; listed as Homo sapiens) [compound 5] | ++++ (> 75% = ++++) |
| 19 (YLETMNITL; listed as Homo sapiens) [compound 19] | +++ (>50 = +++) |
| 15 (GLLSVELRV; listed as Homo sapiens) [compound 15] | ++++ (> 75% = ++++) |
| 54 (TLSDVVVGL; listed as Homo sapiens) [compound 54] | +++ (>50 = +++) |
| 39 (ALDGKIYEL; listed as Homo sapiens) [compound 39] | +++ (>50 = +++) |
| 8 (SVMELLQGV; listed as Homo sapiens) [compound 8] | ++++ (> 75% = ++++) |
| 50 (TLSTVIATV; listed as Homo sapiens) [compound 50] | ++++ (> 75% = ++++) |
